According to PMC11297037 (Nature Communications, 2024):

Molecular target: the molecule itself
Test: cryo-EM structure

B1: human neutral amino acid transporter ASCT2 (natural protein)
chain: MVADPPRDSKGLAAAEPTANGGLALASIEDQGAAAGGYCGSRDQVRRCLRANLLVLLTVVAVVAGVALGLGVSGAGGALALGPERLSAFVFPGELLLRLLRMIILPLVVCSLIGGAASLDPGALGRLGAWALLFFLVTTLLASALGVGLALALQPGAASAAINASVGAAGSAENAPSKEVLDSFLDLARNIFPSNLVSAAFRSYSTTYEERNITGTRVKVPVGQEVEGMNILGLVVFAIVFGVALRKLGPEGELLIRFFNSFNEATMVLVSWIMWYAPVGIMFLVAGKIVEMEDVGLLFARLGKYILCCLLGHAIHGLLVLPLIYFLFTRKNPYRFLWGIVTPLATAFGTSSSSATLPLMMKCVEENNGVAKHISRFILPIGATVNMDGAALFQCVAAVFIAQLSQQSLDFVKIITILVTATASSVGAAGIPAGGVLTLAIILEAVNLPVDHISLILAVDWLVDRSCTVLNVEGDALGAGLLQNYVDRTESRSTEPELIQVKSELPLDPLPVPTEEGNPLLKHYRGPAGDATVASEKESVM
In the case of B1, the “stoichiometry N” value is reported as 3.
